From the DeepSol protein solubility set

Test: soluble on expression in E. coli; label from the status in PepcDB or PDB records

Sequence | soluble on expression in E. coli
MRSATDLLDELNAVDESARIEAKRASDMGKSVMETVIAFANEPGLDGGYLLLGVDWAINDKGDTVYRPVGLPDPDKVQRDLASQCASMLNVALRPEMQLEQVGGKTLLVVYVPEADVTHKPIYKKATGLPGGAYRRIGSSDQRCVDEDLWVLRGESQPLHGPDSSILSDARADDFDPTAIAAYRRERARINPQAEELDYGDEDMLEALGALRRVDGVLQPTLAGIVLFGKPLALRRLLPMVRIDYIRVPGNEWVEDPENRFQSIDIRKPLMLALPLAEASIIDELPKGFRLPEGQLQSVQEPILPRKVIREALANAAMHRNYTLHSPTQIIRYSNRIEIRNVGYSLKEPAQLGLPGSRLRNPAIAAVLHDLHLAEAKGTGIRAMRRLAADAGLPLPEFHSDRQANEFKLTLFLHNLLTEEDHTWLRNYAGSTLGPDEAKVLIYVRATGAVDNTACRDFCGSDTLAASMVLRRLRDRGLLEKRGAGSRTYYTLAGNEPRPTLESAQSELPLDVPADTPPVGQPQPAEAVAGQQACNPQLATLPPELATLLATLQGRISSEALRDGIRRLCQWAPQSGDQLATLLGKDRDYLRNKHLIPMVRDGQLRFRYPESAKHPHQAYVAPEDKRNDLEHHHHHH | soluble
MRSKLNQYNQKRNFTRTLEPEGITEMPQEGLRFVVQHHLARRDHYDLRLEWDGAMLSWAVPKGPSYNTWDKRLAVQVEDHPLEYRHFEGTIPKGEYGGGVVMLWDEGFWEPYVDVDGGLHEGMLKFVLKGRRLKGRWALVRMKGKAGDKKDNWLLLKEKDDYVQTADGISQFTTSLEHHHHHH | not soluble
MRTAEIREKFLSFFEGKGHLRLPSFSLIPEDDPSLLFTSAGMAPLKPYFLGAKPIFGGREWRRVTTCQECLRVGDIENVGRTSRHNTYFEMLGNFSFGDYFKKEAILWAWEFLTEHLKLDPGRLWVTVFEDDDEAYEIWRDLVGVPEERIGRFGEDENYWPGGAITHGPNGPSGPCSEIFYDRGPAYGTPDETGPNTGSGDRFVEIWNLVFTQYDRQGPIPGPGILKPLPQKNIDTGMGLYRVAAILQDVEDFYRTDTFFPIIQEVARMSGRPYEGKTSVSHRVIADHVRAVVAALSDGATFSNTGRGYVIRRLLRRALRHGYLLGLSDPFLHRLAPLVAELLGDFYPEMRENLPAVEKQIRLEEERFLETLEGGLKRLDALLSGLKPGEVLPGKEAFRLYDTYGFPLDLTVEIAAERGYGVDTEGFQKAMEEQQSRSRAAMAFEREIFKKGAQVLEELYAERGATEFLGYNALEAEAEVLALLAGDQSLLEAGPGTEVQVVLDKTPFYAEGGGQIGDFGLLEWPGGRARVETTRKTERGIFLHKARVEEGVLRVGERVRAVVDPRRRDTERNHTATHLLHAALRAVLGPHVRQAGSLVAPDRLRFDFTHPEPLKPEELERVELLVNRWIMADFPVTWRYMPLEEARKEGAMALFGEKYGEVVRVVRVEGSPLEGLESKELCGGCHVRRTGEIGAFLIRSEEAVSAGVRRIEAVTGEEAIRFARGSLNRLKALAERLEVGEAALEERLEKLLAELKEKEREVESLKARLVQAALGGGGGASLEEKGGLRWTVAELPGLDAKALRQAADDLVARGADVALVLSGGQAVLKLSPKAQGMGLEAGALFRALAEKAGGRGGGKGALAQGGGLDPRKAREALPGLLP | soluble
MRTLRIGIVGLGGIAQKAWLPVLTNTAGWTLQGAWSPSRDKALRICESWRIPYVDSLANLASSCDAVFVHSSTASHYAVVSELLNAGVHVCVDKPLAENLRDAERLVALAAQKKLTLMVGFNRRFAPLYRELKTRLGTAASLRMDKHRTDSVGPHDLRFTLLDDYLHVVDTALWLAGGEARLASGTLLTSESGEMCYAEHHFSADKLQITTSMHRRAGSQRESVQAVTDGGLYDVTDMREWREERGQGILIKPIPSWQTTLEQRGFVGCARHFIDCVQNQTVPETAGEQAILAQRVVEALWRDAISE | not soluble
MRTQWPSPAKLNLFLYITGQRADGYHTLQTLFQFLDYGDTISIELRDDGDIRLLTPVEGVEHEDNLIVRAARLLMKTAADSGRLPTGSGANISIDKRLPMGGGLGGGSSNAATVLVALNHLWQCGLSMDELAEMGLTLGADVPVFVRGHAAFAEGVGEILTPVDPPEKWYLVAHPGVSIPTPVIFKDPELPRNTPKRSIETLLKCEFSNDCEVIARKRFREVDAVLSWLLEYAPSRLTGTGACVFAEFDTESEARQVLEQAPEWLNGFVAKGVNLSPLHRAML | soluble
MRVLGIETSCDETGIAVYDDKAGLLANQLYSQVKLHADYGGVVPELASRDHVRKTVPLIQAALKEANLSAKDIDAVAYTAGPGLVGALLVGATIGRALAFAWGVPAVPVHHMEGHLLAPMLEENAPEFPFVALLVSGGHTQLISVTGIGEYLLLGESVDDAAGEAFDKTAKLLGLDYPGGPMLSRMAQQGTVGRFTFPRPMTDRPGLDFSFSGLKTFAANTIRANGDDDQTRADIARAFEDAVVDTLAIKSKRALDQTGFKRLVIAGGVSANQTLRLKLADMMQKRGGEVFYARPEFCTDNGAMIAYAGMVRLRSNLNSELSVSVRPRWPLSELPKV | not soluble
MRVLISPWGDFRKWKVAKYTFSGKSLESRSTLPIMVDVIRPQETIIIVPDTLSSDFSSQESMWNSVKDEVKEFTNQLGVEDVKIIVVPGSGSFSNGSFFGNPMDAYMFLLYELAKELPLEIKEVHLDVTHGLNYLTFFTVRVVQELLGILSIRKGVVLKTYSSDPFVDGSVRHLRVNLIEEATIDPKPLSEFLEGKFLVNYSMDRVEFGEIARRLKAKELDLGRINSWIASLKHGLPLVFTTMYPQEGEVEGVLEDVVAKFLEGFNVGEGKVVRSISLGKDFGSLAKLYFQLRVLKDLKEMYNLPKDEASVEELLKISEEIFTGRIKHSTKVELDNVANRVEKTEGWVKLSEFFKNANPQVDPRNFFAHAGLEANLVEVKRNGELYLRYTKGKVRWGGKEEKAEKVIREILTSRRWF | soluble
MRVVAEDLWFPEGPVWVGDGSLLVVEIRRKTLTRIFPDGRKHIVAELGGGPNGAAMGPDGYCYVANNGGFAFRQREDGRWVTSGTPEDYRTGRIERVDIETGKVEVLYDRIDGRNIRGPNDLVIDAAGGIWFTDPGKTRHRDWDRGSICYATIDGSHIEEKVFPIHKPNGIGLSPDGRTLYVAETETARLWAWDLAGPGRLAAPAAASPASPHGSRLAYASPVYQRFDSLAVQADGAVAIGTLDRGGITTVRPDGSASFVPVAGDTHITNLCFGGEGMRKAYVTQSYAGRLVEIDWASPGLRLFEILEHHHHHH | not soluble
MRVYAIADPHLSRVHPKPMTVFGAGWEGHPEAFFRGWREVVGEEDLVVVPGDISWAMRLSEAIPDLLDLARLPGRKVLLKGNHDYWWPSISRLRAALPPGMYALQNDALVVDGVAVAGTRGWQYPPQTPEDEKVFAREVERLKLSLKALEGQPYRHLVVAFHFPPFGPGGEASPLLELAAGAHPQAIVYGHLHGADPAKLPQSYRGIPLHLVAADALRFRPKLVLEAD | soluble
MRVYDMHVHLHEYSDREVEEILDADKSLVVVAVSDDLESAWRTLDLWHTFGGRVVPCLGFHPWNVREGRVWEAWEVLRLAYRYGVPCLGEVGLDRRFVDEYTWRVQNEVFDAFVQLAEDMGVMLNIHAPDAWKHVAHRIGWTSRARFMYHWYTGPATLPRALPEGRVWFSINSAIRVQEKSVRVAREIPLRSLVVESDGPYNYRGLRLSPLMVRETVKLVAEARGEDPGRLMEAISLNSERLLGLL | not soluble
MRWKRTLQLLDVHCEGEIGRVVTGGAPKIPGNTVAEQLHWMNTDPQGEALRRFLTLEPRGTPMGSVDLLLPPKHPDAHAAFVILQPDQAHASSGSNSICATTALLESGMVEMQEPETVIILETAAGLVKATATCRDGRCEKVKLTMVPSFVHELDVSIDTPEWGRVTMDISYGGIFYALVDVRQIGLTIEKANAAKLVAAGMTLKDLVNREMTVVHPEIPAISGVAYVMFRDVDADGSIRTCTTMWPGRADRSPCGTGNSANLATLYARGKVKVGDEYKSRSIIGSEFDVGLSAVTEVAGRPAVIPTIAGRGFTFGLHQVGLDPFDPLGDGFAMTDVWGPEAGNILEHHHHHH | soluble
MRYAAYYAPRPDSALWRAGCEWLGYDAAGGAQLPRPDVEGVEAGELAGLTREAARYGWHATLKAPFALRPGVGEDALLLQTSMLARRFQPFALSLQVGWLGDFLALRPAGPCAELDELAAACSVSLEGLADRHAPLRPREGLDPRQQALYRRWGYPYVFEQFRFHLTLSDRLDRESAAAVLIERGARRHFAGLLQQVAVAGVTLFVEREQGGPFRYLAYCGFNGEVARHGR | not soluble
MRYEALRLLCFFDLPMESKDEKRIYRNFRKELISNGFEMLQFSVYYRTCPNRSFANKFYKKLKMSNLPAGNVRLLAVTEKQFSEMTLIIGGKTKQEEIVSDNKLVIILEHHHHHH | soluble
MRYLIATAVLVAVVLVGWPAAGAPPSCAGLGGTVQAGQICHVHASGPKYMLDMTFPVDYPDQQALTDYITQNRDGFVNVAQGSPLRDQPYQMDATSEQHSSGQPPQATRSVVLKFFQDLGGAHPSTWYKAFNYNLATSQPITFDTLFVPGTTPLDSIYPIVQRELARQTGFGAAILPSTGLDPAHYQNFAITDDSLIFYFAQGELLPSFVGACQAQVPRSAIPPLAI | soluble
MRYTVALTGGIGSGKSTVADAFADLGITVIDADIIARQMVEPGQPALNAIAEHFGSELIAADGTLRRRALRERIFSHPEEKAWLNALLHPLIQQETQRQFQQATSPYVLWVVPLLVENRLYQKANRVLVVDVTPETQLIRTMQRDDVTREHVEHILAAQATREARLAVADDVIDNNGAPDAIASDVARLHASYLKLASQFVSQEKP | not soluble
MSADFEQLVAQFERFQARMTRVEQQFAGVDDMRQRLAELEVAATSADRSVTVVAGPSGAILDIRLTEQAVRKPAHALAGELMSTLRKAVAEAARRQAGIVDGALGEAFGDDLDLTEQVLETQAELFGMSKEELRAVTAEEATTAPQQGPPAPPARPTPPSPGQPQGGPVPGRPEPGQARTGGPQPGRPHSGRQQSGQPQPGRPQSGQPQPGRPQSGQPQPGKSQPGTSQPGQARPGQSGPAQRPQGGEPQQEDFSERNFMKDDWKQSGSKAQPPGPGGKQDDRFLNLYDDEDGR | not soluble
MSAEASGPAAAAAPSLEAPKPSGLEPGPAAYGLKPLTPNSKYVKLNVGGSLHYTTLRTLTGQDTMLKAMFSGRVEVLTDAGGWVLIDRSGRHFGTILNYLRDGSVPLPESTRELGELLGEARYYLVQGLIEDCQLALQQKRETLSPLCLIPMVTSPREEQQLLASTSKPVVKLLHNRSNNKYSYTSTSDDNLLKNIELFDKLALRFHGRLLFLKDVLGDEICCWSFYGQGRKIAEVCCTSIVYATEKKQTKVEFPEARIFEETLNILIYETPRGPDPALLEATGGAAGAGGAGRGEDEENREHRVRRIHVRRHITHDERPHGQQIVFKD | soluble
MSAEASGPAAAAAPSLEAPKPSGLEPGPAAYGLKPLTPNSKYVKLNVGGSLHYTTLRTLTGQDTMLKAMFSGRVEVLTDAGGWVLIDRSGRHFGTILNYLRDGSVPLPESTRELGELLGEARYYLVQGLIEDCQLALQQKRETLSPLCLIPMVTSPREEQQLLASTSKPVVKLLHNRSNNKYSYTSTSDDNLLKNIELFDKLALRFHGRLLFLKDVLGDEICCWSFYGQGRKIAEVCCTSIVYATEKKQTKVEFPEARIFEETLNILIYETPRGPDPALLEATGGAAGAGGAGRGEDEENREHRVRRIHVRRHITHDERPHGQQIVFKDLEHHHHHH | not soluble
MSAGPIVERNQDATIYVGGLDEKVSESILWELMVQAGPVVSVNMPKDRVTANHQGFGFVEFMGEEDADYAIKILNMIKLYGKPIKVNKASAHEKNMDVGANIFVGNLDPEVDEKLLYDTFSAFGVILQVPKIMRDVDSGTSKGFAFINFASFEASDTALEAMNGQFLCNRAITVSYAFKRDSKGERHGTAAERMLAAQNPLFPKDRPHQVFSDVPLGVPANTPLAMPGVHAAIAAHATGRPGYQPPPLMGMAQSGYQGQYPPVPPPPPSVTPMPPPMPPTPGMTPRPPPPPSSGMWPPPPPPPPGRTPGPPGMPGMPPPPPPSRFGPPGMGGMPPPPPPGMRYPGGMPPPPPPRYPSAGPGMYPPPPPSRPPAPPSGHGMIPPPPPPS | not soluble
